T1: striatal-enriched protein tyrosine phosphatase (STEP), P54830
T1 chain: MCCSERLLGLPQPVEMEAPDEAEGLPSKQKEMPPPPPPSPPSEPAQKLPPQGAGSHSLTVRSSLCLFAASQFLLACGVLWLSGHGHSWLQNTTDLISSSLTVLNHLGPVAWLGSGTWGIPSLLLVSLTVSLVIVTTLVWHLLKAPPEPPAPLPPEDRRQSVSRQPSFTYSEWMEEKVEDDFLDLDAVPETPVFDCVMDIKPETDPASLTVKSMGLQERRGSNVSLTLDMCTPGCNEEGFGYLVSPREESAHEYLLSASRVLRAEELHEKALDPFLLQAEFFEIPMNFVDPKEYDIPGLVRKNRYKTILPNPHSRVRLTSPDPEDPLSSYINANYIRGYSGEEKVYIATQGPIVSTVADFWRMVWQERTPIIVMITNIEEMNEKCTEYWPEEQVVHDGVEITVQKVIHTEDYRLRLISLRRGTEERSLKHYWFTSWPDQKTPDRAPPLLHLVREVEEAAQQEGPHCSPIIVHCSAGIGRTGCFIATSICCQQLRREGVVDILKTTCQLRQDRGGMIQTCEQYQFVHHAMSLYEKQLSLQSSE


Columns and labels:
[1] = molecular target: spectrin, P16546
[2] = molecular target: T1, striatal-enriched protein tyrosine …

Protein | SBDP levels, immunoblot of mouse retinal extracts 6 h after intravitreal NMDA injection [1] | STEP33 (cleavage product of STEP), Western blot of retina 3 h after IOP elevation [2]
calpain-2 (m-calpain), Mus musculus (protein) SHERAIKYLNQDYETLRNECLEAGALFQDPSFPALPSSLGYKELGPYSSKTRGIEWKRPTEICADPQFIIGGATRTDICQGALGDCWLLAAIASLTLNEEILARVVPPDQSFQENYAGIFHFQFWQYGEWVEVVVDDRLPTKDGELLFVHSAEGSEFWSALLEKAYAKINGCYETLSGGATTEGFEDFTGGIAEWYELRKPPPNLFKIIQKALEKGSLLGCSIDITSAADSEAVTYQKLVKGHAYSVTGAEEVESSGSLQKLIRIRNPWGQVEWTGKWNDNCPSWNTVDPEVRANLTERQEDGEFWMSFSDFLRHYSRLEICNLTPDTLTCDSYKKWKLTKMDGNWRRGSTAGGCRNYPNTFWMNPQYLIKLEEEDEDEEDGGRGCTFLVGLIQKHRRRQRKMGEDMHTIGFGIYEVPEELTGQTNIHLGKNFFLTTRARERSDTFINLREVLNRFKLPPGEYVLVPSTFEPHKDGDFCIRVFSEKKADYQAVDDEIEANIEEIDANEEDIDDGFRRLFVQLAGEDAEISAFELQTILRRVLAKRQDIKSDGFSIETCKIMVDMLDEDGSGKLGLKEFYILWTKIQKYQKIYREIDVDRSGTMNSYEMRKALEEAGFKLPCQLHQVIVARFADDELIIDFDNFVRCLVRLETLFKIFKQLDPENTGTIQLNLASWLSFSVL | Levels of SBDP were significantly increased; injection of C2l significantly suppressed NMDA-induced changes in SBDP | STEP33 was present in WT and calpain-1 KO mice but not in C2l-injected WT mice following increased IOP
calpain-1 (µ-calpain), Mus musculus (protein) MTEELITPVYCTGVSAQVQKKRDKELGLGRHENAIKYLGQDYETLRARCLQSGVLFQDEAFPPVSHSLGFKELGPHSSKTYGIKWKRPTELMSNPQFIVDGATRTDICQGALGDCWLLAAIASLTLNETILHRVVPYGQSFQDGYAGIFHFQLWQFGEWVDVVIDDLLPTKDGKLVFVHSAQGNEFWSALLEKAYAKVNGSYEALSGGCTSEAFEDFTGGVTEWYDLQKAPSDLYQIILKALERGSLLGCSINISDIRDLEAITFKNLVRGHAYSVTGAKQVTYQGQRVNLIRMRNPWGEVEWKGPWSDSSYEWNKVDPYEREQLRVKMEDGEFWMSFRDFIREFTKLEICNLTPDALKSRTLRNWNTTFYEGTWRRGSTAGGCRNYPATFWVNPQFKIRLEEVDDADDYDNRESGCSFLLALMQKHRRRERRFGRDMETIGFAVYQVPRELAGQPVHLKRDFFLANASRAQSEHFINLREVSNRIRPPPGEYIVVPSTFEPNKEGDFLLRFFSEKKAGTQELDDQIQANLPDEKVLSEEEIDDNFKTLFSKLAGDDMEISVKELQTILNRIISKHKDLRTNGFSLESCRSMVNLMDRDGNGKLGLVEFNILWNRIRNYLTIFRKFDLDKSGSMSAYEMRMAIEAAGFKLNKKLHELIITRYSEPDLAVDFDNFVCCLVRLETMFRFFKLLDTDLNGVVTFDLFKWLQLTMFA | – | STEP33 was present in WT and calpain-1 KO mice (no part of calpain-1)
